Assay results as given in patent US20240400663A1 (Regeneron, published 2024).

Tests used:
Experiment in all cases: cell-based or functional assay
[1] = biological target: T1, PfRH5 of Plasmodium falciparum strain 7G8 (on live parasites) (Plasmodium falciparum)
[2] = biological target: PfRH5 of Plasmodium falciparum strain D10 (on live parasites) (Plasmodium falciparum)
[3] = biological target: PfRH5 of Plasmodium falciparum strain HB3 (on live parasites) (Plasmodium falciparum)
[4] = biological target: PfRH5 of Plasmodium falciparum strain Cam3.II (on live parasites) (Plasmodium falciparum)
[5] = biological target: T2, PfRH5 of Plasmodium falciparum strain Dd2 (on live parasites) (Plasmodium falciparum)
[6] = biological target: T3, PfRH5 of Plasmodium falciparum strain FCR-1/FVO (on live parasites) (Plasmodium falciparum)
[7] = biological target: PfRH5 of Plasmodium falciparum strain W2-mef (on live parasites) (Plasmodium falciparum)
[8] = biological target: PfRH5 of Plasmodium falciparum strain RF7 (on live parasites) (Plasmodium falciparum)
[9] = biological target: T1, PfRH5 of Plasmodium falciparum strain …; remark: listed apart in the source
[10] = biological target: T3, PfRH5 of Plasmodium falciparum strain …; remark: listed apart in the source
[11] = biological target: T2, PfRH5 of Plasmodium falciparum strain …; remark: listed apart in the source

Binder	Max growth inhibition (%) 7G8, no chloroquine [1]	Max growth inhibition (%) D10 [2]	Max growth inhibition (%) HB3 [3]	Max growth inhibition (%) Cam3.II [4]	Max growth inhibition (%) Dd2 [5]	Max growth inhibition (%) FCR-1/FVO [6]	Max growth inhibition (%) W2-mef [7]	Max growth inhibition (%) RF7 [8]	Max growth inhibition (%) 7G8 [9]	Percent Maximum Growth Inhibition, FCR-1/FVO, mAb (6.67 µM) + AHIS (10%) [10]	Percent Maximum Growth Inhibition, FCR-1/FVO, mAb (6.67 µM) + ANS (10%) [10]	Percent Maximum Growth Inhibition, FCR-1/FVO, mAb (6.67 µM) + HHIS (10%) [10]	Percent Maximum Growth Inhibition, FCR-1/FVO, mAb (6.67 µM) + HNS (10%) [10]	Percent Maximum Growth Inhibition, FCR-1/FVO, mAb (6.67 µM) + No serum [10]	Maximum growth inhibition (%) Dd2 [11]
H1H29089P (antibody, V domains shown) VH: EVQLVQSGAEVKKPGESLKISCKGSGYSFTSYWIVWVRQMPGKGLEWMGIIYPGDSDTRYSPSFQGQVTISADKSISTAYLQWSSLKASDTAMYYCARQDITGTTGFDYWGQGTLVTVSS VL: DIQMTQSPSSLSASVGDRVTITCRASQSIRNYLNWYQQKPGKAPKLLIYAASSLQSGVPSRFSGSGSGTDFTLTISSLQPEDFATYFCQQSYSTPFTFGPGTKVDIKR	51.1%	82.3%	59.1%	56.2%	71.3%	66%	66.4%	28.9%	70.1%	84.3%	75.7%	85.2%	85%	85.3%	–
H1H29100P (antibody, V domains shown) VH: QLQLQESGPGLVKPSETLSLTCTVSGGSISSSSYYWGWIRQPPGKGLEWIGIIYYSGSTYYNPSLKSRVTISVDTSKNQFSLKLSSVTAADTAVYYCARQDREALFDYWGQGTLVTVSS VL: EIVLTQSPDFQSVTPKEKVTITCRASQRIGSSLHWYQQKPDQSPKLLIKYASQSFSGVPSRFSGSGSGTDFTLTINSLEAEDAATYYCHQSSTLPTFGQGTRLEIKR	48.9%	81.7%	62.6%	52.4%	64.6%	66.9%	67.3%	17%	66.4%	82.5%	73.2%	81.9%	82.4%	83.9%	65.7%
